T1: Galectin-8 (Homo sapiens, UniProt O00214)
T1 construct: made in house; host or cells: Escherichia coli SoluBL21
T1 sequence (O00214 1-359 isoform O00214-2): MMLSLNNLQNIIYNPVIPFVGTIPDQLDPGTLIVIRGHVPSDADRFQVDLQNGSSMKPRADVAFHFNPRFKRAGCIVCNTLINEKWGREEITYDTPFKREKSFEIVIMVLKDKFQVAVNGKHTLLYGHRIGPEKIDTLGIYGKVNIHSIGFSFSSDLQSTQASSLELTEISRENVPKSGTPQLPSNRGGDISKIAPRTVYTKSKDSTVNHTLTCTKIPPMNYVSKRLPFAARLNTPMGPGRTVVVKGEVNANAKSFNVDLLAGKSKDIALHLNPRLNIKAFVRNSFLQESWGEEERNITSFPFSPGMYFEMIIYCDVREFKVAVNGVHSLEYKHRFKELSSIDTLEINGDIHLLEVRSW


Assays:
[1] = target: T1, Galectin-8; assay: GST pulldown of in vitro translated radiolabeled TRIMs with GST-Galectin-8; assay type: binding; settings: in vitro translated 35S-Myc-HA-TRIMs
Description: (§1) GST-fusion proteins were expressed in Escherichia coli SoluBL21 (Amsbio). […] The [^35S] labeled proteins were produced using the TNT T7 Quick Coupled Transcription/Translation System (Promega) in the presence of [^35S] L-methionine. The proteins were eluted from washed beads by boiling in SDS-PAGE gel loading buffer. separated by SDS-PAGE, and radiolabeled proteins were detected in a Fujifilm bioimaging analyzer BAS-5000 (Fuji).

[2] = target: T2, Galectin-3 (Homo sapiens, UniProt P17931); assay: GST pulldown of in vitro translated radiolabeled TRIMs with GST-Galectin-3; assay type: binding; settings: in vitro translated 35S-Myc-HA-TRIMs, no ULK1 added
T2 construct: made in house; host or cells: Escherichia coli SoluBL21
T2 sequence (P17931 whole entry): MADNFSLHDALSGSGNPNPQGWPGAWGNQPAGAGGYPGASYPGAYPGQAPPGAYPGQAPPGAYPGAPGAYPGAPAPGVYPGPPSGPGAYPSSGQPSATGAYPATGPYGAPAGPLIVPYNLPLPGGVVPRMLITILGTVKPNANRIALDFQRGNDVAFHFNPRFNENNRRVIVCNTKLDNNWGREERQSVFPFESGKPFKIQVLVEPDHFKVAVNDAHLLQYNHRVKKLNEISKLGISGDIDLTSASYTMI
Description: as §1

| binding to GST-Galectin-8 in GST pulldown [1] | binding to GST-Galectin-3 in GST pulldown [2] | Molecule |
| --- | --- | --- |
| did not | did not | TRIM21: TRIM protein, Accession No. NM_003141, SEQ ID NO: 8 |
| bound | bound | TRIM20: TRIM protein, Accession No. NM_000243, SEQ ID NO: 7 (protein, listed as Homo sapiens) MAKTPSDHLLSTLEELVPYDFEKFKFKLQNTSVQKEHSRIPRSQIQRARPVKMATLLVTYYGEEYAVQLTLQVLRAINQRLLAEELHRAAIQEYSTQENGTDDSAASSSLGENKPRSLKTPDHPEGNEGNGPRPYGGGAASLRCSQPEAGRGLSRKPLSKRREKASEGLDAQGKPRTRSPALPGGRSPGPCRALEGGQAEVRLRRNASSAGRLQGLAGGAPGQKECRPFEVYLPSGKMRPRSLEVTISTGEKAPANPEILLTLEEKTAANLDSATEPRARPTPDGGASADLKEGPGNPEHSVTGRPPDTAASPRCHAQEGDPVDGTCVRDSCSFPEAVSGHPQASGSRSPGCPRCQDSHERKSPGSLSPQPLPQCKRHLKQVQLLFCEDHDEPICLICSLSQEHQGHRVRPIEEVALEHKKKIQKQLEHLKKLRKSGEEQRSYGEEKAVSFLKQTEALKQRVQRKLEQVYYFLEQQEHFFVASLEDVGQMVGQIRKAYDTRVSQDIALLDALIGELEAKECQSEWELLQDIGDILHRAKTVPVPEKWTTPQEIKQKIQLLHQKSEFVEKSTKYFSETLRSEMEMFNVPELIGAQAHAVNVILDAETAYPNLIFSDDLKSVRLGNKWERLPDGPQRFDSCIIVLGSPSFLSGRRYWEVEVGDKTAWILGACKTSISRKGNMTLSPENGYWVVIMMKENEYQASSVPPTRLLIKEPPKRVGIFVDYRVGSISFYNVTARSHIYTFASCSFSGPLQPIFSPGTRDGGKNTAPLTICPVGGQGPD |
| bound | bound | TRIM6: TRIM (tripartite motif) protein tested in GST-Galectin pulldowns (protein, left off: small tags and cut ends, TRIM (tripartite motif) protein tested in GST-Galectin pulldowns) MTSPVLVDIREEVTCPICLELLTEPLSIDCGHSFCQACITPNGRESVIGQEGERSCPVCQTSYQPGNLRPNRHLANIVRRLREVVLGPGKQLKAVLCADHGEKLQLFCQEDGKVICWLCERSQEHRGHHTFLVEEVAQEYQEKFQESLKKLKNEEQEAEKLTAFIREKKTSWKNQMEPERCRIQTEFNQLRNILDRVEQRELKKLEQEEKKGLRIIEEAENDLVHQTQSLRELISDLERRCQGSTMELLQDVSDVTERSEFWTLRKPEALPTKLRSMFRAPDLKRMLRVCRELTDVQSYWVDVTLNPHTANLNLVLAKNRRQVRFVGAKVSGPSCLEKHYDCSVLGSQHFSSGKHYWEVDVAKKTAWILGVCSNSLGPTFSFNHFAQNHSAYSRYQPQSGYWVIGLQHNHEYRAYEDSSPSLLLSMTVPPRRVGVFLDYEAGTVSFYNVTNHGFPIYTFSKYYFPTTLCPYFNPCNCVIPMTLRRPSS |
| bound | bound | TRIM22: TRIM protein, Accession No. NM_006074, SEQ ID NO: 9 (protein, listed as Homo sapiens) MDFSVKVDIEKEVTCPICLELLTEPLSLDCGHSFCQACITAKIKESVIISRGESSCPVCQTRFQPGNLRPNRHLANIVERVKEVKMSPQEGQKRDVCEHHGKKLQIFCKEDGKVICWVCELSQEHQGHQTFRINEVVKECQEKLQVALQRLIKEDQEAEKLEDDIRQERTAWKNYIQIERQKILKGFNEMRVILDNEEQRELQKLEEGEVNVLDNLAAATDQLVQQRQDASTLISDLQRRLRGSSVEMLQDVIDVMKRSESWTLKKPKSVSKKLKSVFRVPDLSGMLQVLKELTDVQYYWVDVMLNPGSATSNVAISVDQRQVKTVRTCTFKNSNPCDFSAFGVFGCQYFSSGKYYWEVDVSGKIAWILGVHSKISSLNKRKSSGFAFDPSVNYSKVYSRYRPQYGYWVIGLQNTCEYNAFEDSSSSDPKVLTLFMAVPPCRIGVFLDYEAGIVSFFNVTNHGALIYKFSGCRFSRPAYPYFNPWNCLVPMTVCPPSS |
| did not | did not | TRIM55: TRIM (tripartite motif) protein tested in GST-Galectin pulldowns (protein, left off: small tags and cut ends, TRIM (tripartite motif) protein tested in GST-Galectin pulldowns) MSASLNYKSFSKEQQTMDNLEKQLICPICLEMFTKPVVILPCQHNLCRKCASDIFQASNPYLPTRGGTTMASGGRFRCPSCRHEVVLDRHGVYGLQRNLLVENIIDIYKQESTRPEKKSDQPMCEEHEEERINIYCLNCEVPTCSLCKVFGAHKDCQVAPLTHVFQRQKSELSDGIAILVGSNDRVQGVISQLEDTCKTIEECCRKQKQELCEKFDYLYGILEERKNEMTQVITRTQEEKLEHVRALIKKYSDHLENVSKLVESGIQFMDEPEMAVFLQNAKTLLKKISEASKAFQMEKIEHGYENMNHFTVNLNREEKIIREIDFYREDEDEEEEEGGEGEKEGEGEVGGEAVEVEEVENVQTEFPGEDENPEKASELSQVELQAAPGALPVSSPEPPPALPPAADAPVTQGEVVPTGSEQTTESETPVPAAAETADPLFYPSWYKGQTRKATTNPPCTPGSEGLGQIGPPGSEDSNVRKAEVAAAAASERAAVSGKETSAPAATSQIGFEAPPLQGQAAAPASGSGADSEPARHIFSFSWLNSLNE |
| did not | did not | TRIM56: TRIM protein, Accession No. NM_030961, SEQ ID NO: 10 (protein, listed as Homo sapiens) MVSHGSSPSLLEALSSDFLACKICLEQLRAPKTLPCLHTYCQDCLAQLADGGRVRCPECRETVPVPPEGVASFKTNFFVNGLLDLVKARACGDLRAGKPACALCPLVGGTSTGGPATARCLDCADDLCQACADGHRCTRQTHTHRVVDLVGYRAGWYDEEARERQAAQCPQHPGEALRFLCQPCSQLLCRECRLDPHLDHPCLPLAEAVRARRPGLEGLLAGVDNNLVELEAARRVEKEALARLREQAARVGTQVEEAAEGVLRALLAQKQEVLGQLRAHVEAAEEAARERLAELEGREQVARAAAAFARRVLSLGREAEILSLEGAIAQRLRQLQGCPWAPGPAPCLLPQLELHPGLLDKNCHLLRLSFEEQQPQKDGGKDGAGTQGGEESQSRREDEPKTERQGGVQPQAGDGAQTPKEEKAQTTREEGAQTLEEDRAQTPHEDGGPQPHRGGRPNKKKKFKGRLKSISREPSPALGPNLDGSGLLPRPIFYCSFPTRMPGDKRSPRITGLCPFGPREILVADEQNRALKRFSLNGDYKGTVPVPEGCSPCSVAALQSAVAFSASARLYLINPNGEVQWRRALSLSQASHAVAALPSGDRVAVSVAGHVEVYNMEGSLATRFIPGGKASRGLRALVFLTTSPQGHFVGSDWQQNSVVICDGLGQVVGEYKGPGLHGCQPGSVSVDKKGYIFLTLREVNKVVILDPKGSLLGDFLTAYHGLEKPRVTTMVDGRYLVVSLSNGTIHIFRVRSPDS |
| bound | bound | TRIM 17: TRIM (tripartite motif) protein tested in GST-Galectin pulldowns (protein, left off: small tags and cut ends, TRIM (tripartite motif) protein tested in GST-Galectin pulldowns) MEAVELARKLQEEATCSICLDYFTDPVMTTCGHNFCRACIQLSWEKARGKKGRRKRKGSFPCPECREMSPQRNLLPNRLLTKVAEMAQQHPGLQKQDLCQEHHEPLKLFCQKDQSPICVVCRESREHRLHRVLPAEEAVQGYKLKLEEDMEYLREQITRTGNLQAREEQSLAEWQGKVKERRERIVLEFEKMNLYLVEEEQRLLQALETEEEETASRLRESVACLDRQGHSLELLLLQLEERSTQGPLQMLQDMKEPLSRKNNVSVQCPEVAPPTRPRTVCRVPGQIEVLRGFLEDVVPDATSAYPYLLLYESRQRRYLGSSPEGSGFCSKDRFVAYPCAVGQTAFSSGRHYWEVGMNITGDALWALGVCRDNVSRKDRVPKCPENGFWVVQLSKGTKYLSTFSALTPVMLMEPPSHMGIFLDFEAGEVSFYSVSDGSHLHTYSQATFPGPLQPFFCLGAPKSGQMVISTVTMWVKG |
| bound | bound | TRIM49: TRIM (tripartite motif) protein tested in GST-Galectin pulldowns (protein, left off: small tags and cut ends, TRIM (tripartite motif) protein tested in GST-Galectin pulldowns) MNSGILQVFQGELICPLCMNYFIDPVTIDCGHSFCRPCFYLNWQDIPFLVQCSECTKSTEQINLKTNIHLKKMASLARKVSLWLFLSSEEQMCGTHRETKKIFCEVDRSLLCLLCSSSQEHRYHRHRPIEWAAEEHREKLLQKMQSLWEKACENHRNLNVETTRTRCWKDYVNLRLEAIRAEYQKMPAFHHEEEKHNLEMLKKKGKEIFHRLHLSKAKMAHRMEILRGMYEELNEMCHKPDVELLQAFGDILHRSESVLLHMPQPLNPELSAGPITGLRDRLNQFRVHITLHHEEANNDIFLYEILRSMCIGCDHQDVPYFTATPRSFLAWGVQTFTSGKYYWEVHVGDSWNWAFGVCNMYRKEKNQNEKIDGKAGLFLLGCVKNDIQCSLFTTSPLMLQYIPKPTSRVGLFLDCEAKTVSFVDVNQSSLIYTIPNCSFSPPLRPIFCCIHF |

— US12285470B2, “Trim proteins and galectins cooperate and codirect autophagy and are useful in the treatment of autophagy related diseases” (UNM RAINFOREST INNOVATIONS, priority 2016, dated 2025)
